In one data set the test system is CTLA-4. As to the kind of experiment: Size-exclusion chromatography analysis of CTLA-4 binding to mLcn2-Fc constructs.
Data set [1] relates to human CTLA4-Fc on Tni insect cells. In words: Flow cytometry of Tni insect cells transiently expressing human CTLA4-Fc. Format: cell-based. As to conditions: Alexa Fluor-647 conjugated variants. The source says: FIG. 10C: Flow cytometry analysis of Tni insect cells induced to transiently express human CTLA4-Fc. Cells were stained with Alexa Fluor-647 conjugated mLcn2-Fc variants and gated for Forward scatter/Side scatter, DAPI^−, singlet size (pulse width), and APC. Uninfected cells stained with mLcn2-Fc are shown in grey as a negative control.
Chain of human CTLA4-Fc on Tni insect cells (P16410 36-161 limits assumed): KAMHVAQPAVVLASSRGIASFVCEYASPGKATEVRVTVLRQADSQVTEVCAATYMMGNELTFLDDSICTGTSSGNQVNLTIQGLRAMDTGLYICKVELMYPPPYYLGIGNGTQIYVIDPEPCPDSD
For orientation: A flow cytometer gives signals particle by particle.

The subject of data set [2] is tumor-infiltrating lymphocytes (TILs) in B16 tumor tissues. As to the kind of experiment: In vivo detection of mLcn2 variants in B16 tumor tissues (IHC). The following applies: i.v. 100 μg, melanoma-bearing mice, tumor samples 72 hr post-dose; listed as unmasked (MMP9-pretreated) mLcn2. The procedure:
FIG. 4: In vivo detection of mLcn2 variants (CTLA-4 binding protein variants) in B16 tumor tissues.
(§1) FIG. 9: Biodistribution of mLcn2-Fc constructs in vivo. (A-C) Naïve mice were injected i.v. with 100 μg of indicated mLcn2-Fc construct and tissue samples were collected 48 hr. post-dose. Cryosections were stained for CD4 or CD8 (medium gray) and human IgG (light gray) from the thymus (A), spleen (B), and pituitary gland (C, IgG only). (D) Melanoma-bearing mice were injected as above and tumor samples were collected 72 hr. post-dose. 4′,6-diamidino-2-phenylindole (DAPI) nuclear staining shown in dark gray.
FIG. 17: Melanoma-bearing mice were injected i.v. with 100 μg of indicated mLcn2-Fc construct and tumor samples were collected 72 hr. post-dose. Cryosections were stained for CD4 or CD8 (medium gray) and human IgG (light gray). […] 4′,6-diamidino-2-phenylindole (DAPI) nuclear staining shown in dark gray.
(§2) In these experiments constructs were injected i.v. into C57/B16 mice bearing B16 melanomas. Three days after injection, tumor and tissue samples were collected and doublestained using antibodies recognizing either CD4 or CD8 and mLcn2 (e.g. human IgG-Fc). Membranes of both intratumoral CD4+ and CD8+ T cells were decorated with mLcn2 which was not detected on other cell types.

In another data set the test system is pituicytes. In words: In vivo binding of mLcn2 variants to cells within the pituitary gland. As to conditions: naïve mice, i.v. 100 μg, 48 hr post-dose, human IgG staining. The procedure:
FIG. 5: Binding of CTLA-4 antagonist mLcn2 variants to cells within the pituitary gland.
as §1
FIG. 18: Naïve mice were injected i.v. with 100 μg of indicated mLcn2-Fc construct and tissue samples were collected 48 hr. post-dose. Cryosections were stained for human IgG (light gray).
as §2

Data set [3] has as its system CD4/CD8 negative cells in the spleen. As to the kind of experiment: In vivo binding of mLcn2 constructs in the spleen. Also noted: species or system mice. As to conditions: not shown; potentially due to FcR binding. The method, then: as §1
FIG. 16: Naïve mice were injected i.v. with 100 μg of indicated mtLCN2-Fc construct and tissue samples were collected 48 hr. post-dose. Cryosections were stained for CD4 or CD8 (medium gray) and human IgG (light gray) from the spleen.
as §2

The test system of another data set is CTLA-4-Fc. In words: SPR kinetics of monomeric mLCN2 and dimeric mLCN2-Fc on immobilized CTLA-4-Fc. As to conditions: dimeric CTLA-4-Fc immobilized at medium density on CM5 chip. Format: binding. The procedure: FIG. 10A: SPR analysis. Dimeric CTLA-4-Fc was immobilized at medium density to a CM5 chip. A range of 3-1000 nM monomeric mLCN2 (top) and 3-300 nM dimeric mLCN2-Fc (bottom) analytes were used for kinetics analyses. […] Concentration of analytes is 1000; 300; 30; and 3 nM.
Chain of CTLA-4-Fc (P16410 36-161 limits assumed): as above

Data set [4] deals with murine, primate and human CTLA-4. As to the kind of experiment: CTLA-4 species cross-reactivity of mLcn2. Format: binding.

The record followed here is patent publication US10689423B2, “CTLA4-binding protein peptide-linker masks” (City of Hope, priority 2015, dated 2020).

Chain of CTLA-4 (P16410 36-161 limits assumed): as above

B1: Unmasked mLcn2-Fc: masked mLcn2-Fc treated with MMP9, mask released (protein)
chain: QDSTSDLIPAPPLSKVPLQQNFQDNQFHGKWYVVGLAGNRILRDDQHPMNMYATIYELKEDKSYNVTSVISSHKKCEYTIATFVPGSQPGEFTLGNIKSYGDKTSYLVRVVSTDYNQYAVVFFKLAEDNAEFFAITIYGRTKELASELKENFIRFSKSLGLPENHIVFPVPIDQCIDG
modifications: left off: small tags and cut ends; a dimerising Fc or GST
notes: masked mLcn2-Fc treated with MMP9, mask released
B1: the “CTLA-4 binding by SEC” value in the data set with CTLA-4 (FIG. 3B) is “binding of CTLA-4 only to unmasked mLcn2-Fc constructs”. The “SEC elution volume of construct incubated with CTLA-4” value in the data set on CTLA-4 (Superdex 200, apo CTLA-4 13.0 mL, apo constructs ~12.7 mL) is listed as 11.3 mL. The “binding to CTLA4-Fc expressing Tni cells” value in data set [1] was “showed binding to cells”. Moreover, the “staining of CD4 or CD8 TILs in tumor” value in data set [2] is listed as “membrane staining of tumor-infiltrating lymphocytes (TILs)”. Besides, the “binding to pituitary gland cells” value in the data set with pituicytes is reported as “bound equally well to pituicytes”. The “binding in the spleen” value in data set [3] is recorded as “bound to CD4/CD8 negative cells in the spleen”.

B2: mLCN2: modified lipocalin2 used as a CTLA-4 antagonist, SEQ ID NO:34 (protein, listed as Homo sapiens)
chain: B1 chain
In the case of B2, in the data set on CTLA-4-Fc, the ka is 3.6 E4 M^−1 s^−1 and the kd is on record as 2.0 E-4 s^−1. The “binding to pituitary gland cells” value in the data set on pituicytes is recorded as “reactivity with non-immune cells in the pituitary glands”. Besides, in data set [4], the “CTLA-4 binding across species” value is “binds to murine, primate and human CTLA-4”.

B3: mLcn2-Fc: mLcn2 fused to IgG1 Fc without a mask fused to the N-terminus (positive control) (protein)
chain: B1 chain
modifications: left off: a dimerising Fc or GST
With B3, in the data set on CTLA-4-Fc, the ka is 1.0 E4 M^−1 s^−1 and the kd entry is recorded as “could not be determined as it was beyond the limitations of the instrument”. Further, in data set [1], the “binding to CTLA4-Fc expressing Tni cells” value is on record as “showed binding to cells”. Besides, in the data set on pituicytes, the “binding to pituitary gland cells” value was “bound equally well to pituicytes”.
